T1: EphB2-NMDAR interaction (Homo sapiens, UniProt P29323)
T1 sequence (P29323 19-1055): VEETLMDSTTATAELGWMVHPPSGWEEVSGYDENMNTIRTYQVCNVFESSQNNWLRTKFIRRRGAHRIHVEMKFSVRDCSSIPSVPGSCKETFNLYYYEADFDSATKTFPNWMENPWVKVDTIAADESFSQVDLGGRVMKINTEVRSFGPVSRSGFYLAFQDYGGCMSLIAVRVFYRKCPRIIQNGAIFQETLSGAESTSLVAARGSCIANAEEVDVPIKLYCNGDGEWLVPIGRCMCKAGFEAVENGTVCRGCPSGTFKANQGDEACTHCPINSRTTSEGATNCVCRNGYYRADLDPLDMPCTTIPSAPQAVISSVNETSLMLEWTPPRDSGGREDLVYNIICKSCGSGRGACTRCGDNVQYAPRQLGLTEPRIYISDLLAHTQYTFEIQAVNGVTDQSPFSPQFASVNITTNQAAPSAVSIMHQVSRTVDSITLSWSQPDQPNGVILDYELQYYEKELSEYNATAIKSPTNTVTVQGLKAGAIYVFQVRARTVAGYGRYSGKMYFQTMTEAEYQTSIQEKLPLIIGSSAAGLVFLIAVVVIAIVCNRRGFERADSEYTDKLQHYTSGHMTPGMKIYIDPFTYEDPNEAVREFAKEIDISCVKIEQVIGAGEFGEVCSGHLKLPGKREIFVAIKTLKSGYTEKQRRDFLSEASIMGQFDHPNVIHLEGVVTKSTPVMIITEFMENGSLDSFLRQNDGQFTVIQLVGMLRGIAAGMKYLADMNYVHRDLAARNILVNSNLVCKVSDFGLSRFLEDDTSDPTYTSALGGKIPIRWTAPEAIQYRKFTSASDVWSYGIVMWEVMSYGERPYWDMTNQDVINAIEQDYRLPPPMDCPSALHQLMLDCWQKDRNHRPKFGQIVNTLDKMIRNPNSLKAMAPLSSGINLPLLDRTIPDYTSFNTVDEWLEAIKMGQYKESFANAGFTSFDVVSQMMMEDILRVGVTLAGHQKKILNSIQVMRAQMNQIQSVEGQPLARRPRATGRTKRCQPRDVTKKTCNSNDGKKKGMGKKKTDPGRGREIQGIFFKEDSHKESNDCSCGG

T2: EphB2 extracellular domain (Homo sapiens, UniProt P29323)
T2 construct: purified recombinant protein fragment with EphB2 extracellular domain (EphB2 (200 ng), active; Millipore); purchased Millipore
T2 sequence (P29323 19-543 limits assumed): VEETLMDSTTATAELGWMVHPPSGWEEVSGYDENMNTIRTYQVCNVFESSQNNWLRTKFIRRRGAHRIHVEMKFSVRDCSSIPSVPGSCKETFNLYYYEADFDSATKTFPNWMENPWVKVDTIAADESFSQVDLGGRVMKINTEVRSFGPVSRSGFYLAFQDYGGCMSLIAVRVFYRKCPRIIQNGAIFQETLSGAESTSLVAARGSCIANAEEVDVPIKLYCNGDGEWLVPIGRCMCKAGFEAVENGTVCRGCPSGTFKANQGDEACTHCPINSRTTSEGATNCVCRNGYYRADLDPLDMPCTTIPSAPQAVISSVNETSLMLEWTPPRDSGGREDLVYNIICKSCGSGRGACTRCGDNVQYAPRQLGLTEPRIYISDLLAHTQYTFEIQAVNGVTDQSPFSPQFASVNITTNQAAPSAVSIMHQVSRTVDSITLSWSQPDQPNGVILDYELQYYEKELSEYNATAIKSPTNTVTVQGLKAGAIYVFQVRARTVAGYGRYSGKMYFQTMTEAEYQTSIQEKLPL


Experiments:
[1] = test system: mice; assay: Intrathecal administration, von Frey mechanical withdrawal thresholds; format: in vivo, mouse
Description: Behavior. Mechanical Withdrawal Thresholds were determined using von Frey Filament testing, following the method of (48). Animals were habituated to plexiglass chambers (11.4×7.6×7.6 cm) suspended on wire mesh racks. Baseline withdrawal thresholds were measured before experimental treatments, and subsequent testing was done at various timepoints indicated in each figure. Mechanical sensitivity was determined by applying von Frey filaments to the plantar aspect of the hind paws, and a response was indicated by flicking or withdrawal of the paw. For mice subjected to hindpaw incision surgeries, filaments were instead applied to the heel of the hindpaw near the site of injury but avoiding scar tissue.
(§1) Intrathecal injections were performed as previously described under isoflurane anesthesia (6). Drugs were administered in a 5 μL volume with a Hamilton syringe. Drugs were diluted in sterile saline. Heat denaturation was done by heating proteins at 70° C. for 30 mins. VLK, KD-VLK, DIA1, FAM69c and denatured controls were administered at concentrations of 0.1 mg/mL PAP was administered at 250 mU (12). APV was administered at 0.2 mg/mL.

[2] = test system: mice; assay: Intrathecal administration, Mouse Grimace Scale scoring; format: in vivo
Description: Mouse grimace scoring was conducted using the Mouse Grimace Scale (MGS) described by (49). After acclimating to the suspended plexiglass chambers for an hour, mice were scored according to the MGS by blinded experimenters at baseline and post treatment time points which are indicated in each figure. The grimace scores were averaged by group at each time point and plotted respectively.
as §1

[3] = test system: neuronal cFos expression; assay: cFos/NeuN staining of lumbar spinal cord dorsal horn after intrathecal administration; format: in vivo, mouse
Description: cFos and NeuN staining of free-floating tissue sections. Adult mice were euthanized by isoflurane inhalation. Lumbar spinal cords were dissected and drop fixed in 10% formalin for 2 hours, cryoprotected, embedded in OCT (Fisher #1437365) and frozen on dry ice. Tissues were cryostat sectioned at […]. Tissues were blocked in 0.1M Phosphate buffer with 10% Normal Goat Serum and 0.3% Triton-X and incubated in cFos and NeuN primary antibodies for 48 hours at 4° C. Secondary antibodies were incubated for 2 hours at room temperature. Sections were slide mounted and cover slipped with Prolong Gold Antifade. Images were taken on an Olympus Fluoview FV1000 confocal microscope at 20× magnification. cFos^+ cell counts were carried out using Imaris software.
as §1

[4] = biological target: T1, EphB2-NMDAR interaction; assay: Proximity ligation assay (PLA) of EphB2-NMDAR in transfected HEK293T cells; format: cell-based; details: non-permeabilized HEK293T cells, 100 ng recombinant protein, 45 minutes
Description: Recombinant protein—HEK293T cells were treated with 100 ng recombinant VLK, Fam69C, or DIA1. Synaptosomes were treated with 100 ng recombinant VLK. 1 mM ATP (Cat #A9187; Sigma) was applied as indicated. Recombinant PAP treatment was applied at 100 ng.
Proximity Ligation Assay (PLA). As previously described, PLA experiments on HEK293T cells, mouse brain, and human spinal cord synaptosomes were performed (4). Synaptosome PLA combined with vGlut1 immunostaining was also previously described (4).

[5] = test system: endogenous EphB2-NMDAR interaction; assay: EphB2/GluN1 co-immunoprecipitation in untransfected cultured cortical neurons; format: cell-based; details: untransfected rat cortical neurons, 45 min
Description: Primary neuronal culture and transfection. Primary neuronal cultures were derived from embryonic day 17-18 (E17-18) rat cerebral cortex and maintained as described previously (4, 6). 8×10^6 neurons were plated for 10 cm dishes and 1×10^6 neurons were plated per well of 6 well dishes for biochemical assays. 2×10^5 neurons were plated on glass bottom dishes for live cell imaging experiments. As previously described, neuronal cultures were transfected using Lipofectamine 2000 (4, 6).
Western Blotting, Immunoprecipitation (IP) and Co-IP. HEK293T cells and cultured neurons were lysed in RIPA buffer to generate protein lysates. Cortices of postnatal day 35 (P35) transgenic mice Pkdcc^flox/flox CaMKII^Cre/+ and its WT littermate controls were also lysed using RIPA buffer and an equal amount of protein was used to perform IP. Pooled dorsal horns from Pkdcc^flox/flox Pirt^Cre/+ uninjured mice and their WTlittermate controls were lysed in RIPA. Following lysis, an additional Percoll gradient spin was carried out to remove myelin and unwanted cellular debris (37) and an equal amount of protein was used to perform IP. For conditioned ACSF IP, ACSF was filtered through a […] syringe filter (Millipore, cat #SLGV004SL) and incubated with antibody for 2 h at 4° C. followed by addition of Protein-G beads and incubation overnight at 4° C. […]

[6] = biological target: T2, EphB2 extracellular domain; assay: In vitro cell-free kinase assay; format: biochemical; details: 100 ng kinase, 200 ng EphB2 ectodomain, ATP, 37° C., 30 min
Description: In vitro Kinase assay. For the in vitro kinase assay purified recombinant protein fragment with EphB2 extracellular domain (EphB2 (200 ng), active; Millipore) and active VLK (100 ng), VLK-KD (100 ng), Fam69C (100 ng), DIA1 (100 ng) was used. The kinase reaction was started by adding 10 mM MnCl2, 10 mM MgAc, and 100 μM ATP in ACSF buffer. After 30 min of incubation at 37° C., phosphorylated proteins were separated by SDS-PAGE and analyzed by western blotting with anti-phosphotyrosine antibody (PY99) and EphB2. This protocol was also previously described (6)

[7] = agent given intrathecally before or together with VLK
[8] = intrathecal, 0.1 mg/mL in 5 μL, kinase given alone

Row | Molecule | VLK-induced mechanical sensitivity [1, 7] | VLK-induced grimacing [2, 7] | VLK-induced neuronal cFos expression ([3]; VLK+AP5 intrathecal) | mechanical thresholds (von Frey) [1, 8] | grimacing (grimace scores, affective pain) [2, 8] | neuronal cFos expression (cFos+ cells) ([3]; intrathecal VLK alone) | EphB2-NMDAR interaction on the cell surface (PLA) ([4]; listed as rVLK) | EphB2-NMDAR interaction on the cell surface (PLA) ([4]; listed as recombinant VLK) | endogenous EphB2-NMDAR interaction (co-IP GluN1 with EphB2) [5] | tyrosine phosphorylation of EphB2 ectodomain [6]
1 | NC(CCCP(=O)(O)O)C(=O)O (stereo not shown) [AP5, reference compound] | blocked the VLK-induced pain phenotype | blocked the VLK-induced pain phenotype | blocked | – | – | – | – | – | – | –
2 | VLK: active recombinant Vertebrate Lonesome Kinase (VLK/PKDCC), GST-tagged, purified from BL21 cells (protein) PRPGQSPEPSPAPGPGRRGGRGELARQIRARYEEVQRYSRGGPGPGAGRPERRRLMDLAPGGPGLPRPRPPWARPLSDGAPGWPPAPGPGSPGPGPRLGCAALRNVSGAQYMGSGYTKAVYRVRLPGGAAVALKAVDFSGHDLGSCVREFGVRRGCYRLAAHKLLKEMVLLERLRHPNVLQLYGYCYQDSEDIPDTLTTITELGAPVEMIQLLQTSWEDRFRICLSLGRLLHHLAHSPLGSVTLLDFRPRQFVLVDGELKVTDLDDARVEETPCAGSTDCILEFPARNFTLPCSAQGWCEGMNEKRNLYNAYRFFFTYLLPHSAPPSLRPLLDSIVNATGELAWGVDETLAQLEKVLHLYRSGQYLQNSTASSSTEYQCIPDSTIPQEDYRCWPSYHHGSCLLSVFNLAEAVDVCESHAQCRAFVVTNQTTWTGRQLVFFKTGWSQVVPDPNKTTYVKASG | – | – | – | sharp drop in mechanical thresholds | increased grimacing | significant increase in neuronal cFos expression | induces the EphB2-NMDAR interaction on the cell surface | induced the EphB2-NMDAR interaction on the cell surface | induces the endogenous EphB2-NMDAR interaction | unique capacity to phosphorylate the EphB2 ectodomain
